Among the data in article PMC10821904 (2024) are stoichiometry N and Kd values, retold here.

The target in assay [1] is Full-length LayV-G (Langya henipavirus attachment glycoprotein G) (Langya henipavirus (LayV)). The assay can be described thus: cryo-EM structure.
Assay [2] deals with LayV-G extracellular domain (Langya henipavirus attachment glycoprotein G, residues 63-624) (Langya henipavirus (LayV)). The assay can be described thus: SEC + other: non-reducing and reducing SDS-PAGE.
The target of assay [3] is T1, human ephrinB3 extracellular domain (amino acids 1-224) (human, UniProt Q15768 28-224).
T1 chain: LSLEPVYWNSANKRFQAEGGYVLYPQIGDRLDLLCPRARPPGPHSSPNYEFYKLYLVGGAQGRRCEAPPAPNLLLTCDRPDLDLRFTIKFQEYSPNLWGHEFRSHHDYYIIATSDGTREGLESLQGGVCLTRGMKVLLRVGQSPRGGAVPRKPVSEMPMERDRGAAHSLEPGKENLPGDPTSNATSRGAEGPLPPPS
The assay can be described thus: BLI. On the technique in general: BLI is a label-free optical method that tracks binding on a fibre tip over time.

For assay [4], the target named is T2, human ephrinB2 extracellular domain (amino acids 1-227) (human, UniProt P52799 28-227).
T2 chain: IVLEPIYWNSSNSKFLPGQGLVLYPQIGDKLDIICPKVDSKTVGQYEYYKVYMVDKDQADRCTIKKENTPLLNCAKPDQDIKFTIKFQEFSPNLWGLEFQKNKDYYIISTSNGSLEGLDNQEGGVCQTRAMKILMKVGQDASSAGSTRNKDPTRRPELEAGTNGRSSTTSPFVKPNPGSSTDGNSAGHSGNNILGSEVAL
The assay can be described thus: BLI.

What is called stoichiometry N is the number of molecules, sites or subunits per partner or assembly. In assay [1], “Full-length LayV-G (Langya henipavirus attachment glycoprotein G) (natural protein)” displayed a stoichiometry N of 4.

“LayV-G extracellular domain (Langya henipavirus attachment glycoprotein G, residues 63-624) (domain or fragment)”: in assay [2], the stoichiometry N was found to be 4.

B1: NiV-G ectodomain (Nipah virus attachment glycoprotein G) (domain or fragment)
chain: QNYTRSTDNQAVIKDALQGIQQQIKGLADKIGTEIGPKVSLIDTSSTITIPANIGLLGSKISQSTASINENVNEKCKFTLPPLKIHECNISCPNPLPFREYRPQTEGVSNLVGLPNNICLQKTSNQILKPKLISYTLPVVGQSGTCITDPLLAMDEGYFAYSHLERIGSCSRGVSKQRIIGVGEVLDRGDEVPSLFMTNVWTPPNPNTVYHCSAVYNNEFYYVLCAVSTVGDPILNSTYWSGSLMMTRLAVKPKSNGGGYNQHQLALRSIEKGRYDKVMPYGPSGIKQGDTLYFPAVGFLVRTEFKYNDSNCPITKCQYSKPENCRLSMGIRPNSHYILRSGLLKYNLSDGENPKVVFIEISDQRLSIGSPSKIYDSLGQPVFYQASFSWDTMIKFGDVLTVNPLVVNWRNNTVISRPGQSQCPRFNTCPEICWEGVYNDAFLIDRINWISAGVFLDSNQTAENPVFTVFKDNEILYRAQLASEDTNAQKTITNCFLLKNKIWCISLVEIYDTGDNVIRPKLFAVKIPEQCT
The Kd is the constant that tells how readily two partners part at equilibrium. A higher Kd goes with lower affinity. In the case of B1, the Kd turned out to be 9.3 nM in assay [3] and 0.19 nM in assay [4].
